B1: CE2: anti-tau core clone, Table 10; SEQ ID NO: 366 (protein)
scFv: QVQLQESGPSLVKPSQTLSLTCTVSGFSLTNYPVGWVRQAPGKALEWIGNIENDGSANYASALKSRLSITRDTSKNQVSLSLSSATTEDTAVYYCGREFGGSDGYTYFVDIDYWGPGLLVTVSSEGKSSGASGESKVDDQAVLTQPSSVSKSLGQSVSITCSGSSSNVGYGNYVSWFQQVPGSAPKILIYGATSRASGVPDRFSGSRSGNTATLTITSLQAEDEADYYCASYDGSSSGVFGSGTRLTVLG
modifications: CE2/E1B8 amino acid sequence
B2: S1G2: sheep-derived anti-tau core clone; scFv SEQ ID NO: 81, VH 455, VL 456 (protein)
scFv: QVQLQESGPSLVKPSQTLSLTCTVSGFSLTSNSVGWVRQAPGKAPEWVAGIDTDGEEGYNPALNSRLSITRDTSKSQVSLSLSSVTSEDTAVYYCGRSYRADGLAYGYVQAIDYWGPGLLVTVSSEGKSSGASGESKVDDQAVVTQPSSVSGSLGQRVSITCSGSFIGISSVGWFQQLPGSGLRTIIVASDGRPSGVPDRFSMSKSGNTATLTISSLQAEDEADYFCGSSDRTPYTGVFGSGTRLTVLG
modifications: S1G2 amino acid sequence
B3: S1D12: sheep-derived anti-tau core clone; scFv SEQ ID NO: 32, VH 443, VL 444 (protein)
scFv: QVQLQESGPSLVKPSQTLSLTCTVSGFSLNNNAVGWVRQAPGKVPESLVGCSSDGTCYYNSALKSRLDITRDTSKNQISLSLSSVTTDDAAVYYCTRGHYSIYGYDYLGTIDYWGPGLLVTVSSEGKSSGASGESKVDDQAVLTQPSSVSGSLGQRVSITCSGSSSNVGGGNSVGWYQHLPGSGLKTIIYDTNSRPSGVPDRFSGSRSGNTATLTINSLQAEDEGDYYCVTGDSTTHDDLVGSGTRLTVLG
modifications: S1D12 amino acid sequence

Assays:
[1] = test system: 13 aa tau peptides of hT40; assay: Alanine scanning mutagenesis (ASM) peptide ELISA; type: binding, human; conditions: alanine substituted peptides; numbering SEQ ID NO: 1
Protocol: Briefly, 5 μg/ml streptavidin (Thermo Fisher) was adsorbed to Nunc 96-well MaxiSorp plates and following incubation at 37° C. for 1 h, the plates were washed as normal and blocked with 2% MPBS. N-terminally biotinylated peptides (Prolmmune Ltd) were added to the plates and incubated for 1 h at 37° C. Subsequently, test scAbs at starting concentrations of 100-500 nM was added and double diluted across the plate for each peptide and incubated for 1 h at 37° C. Rest of the ELISA was conducted as described above and the plates were read at absorbance 450 nm. Immunoreactivity of the scAb of interest was quantified as the % of scAb was bound for each peptide at a chosen concentration (FIG. 15-20).

[2] = biological target: dGA (SEQ ID NO: 5) (Homo sapiens, UniProt P10636); assay: Biacore X100 SPR kinetics of scAbs for dGA; type: binding; conditions: Table 24, scAb, dGA analyte; for Kd: dissociation rate
Sequence of dGA (SEQ ID NO: 5) (P10636 614-707): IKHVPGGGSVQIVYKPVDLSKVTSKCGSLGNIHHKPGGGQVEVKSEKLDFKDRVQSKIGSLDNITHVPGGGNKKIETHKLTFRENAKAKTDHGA
Protocol: Surface plasmon resonance (SPR) is widely regarded as the gold standard for real time measurement of protein-protein interactions such as antibody binding. All SPR experiments were carried out using a Biacore X100 machine and HBS EP+ running buffer (GE Healthcare). A ‘capture’ method was followed for affinity measurements, where an anti-human constant kappa chain (HuCk) antibody was conjugated to the surface of a CM5 sensor chip using an amine coupling kit and scAb molecules were immobilised via their HuCk domain. Amine coupling is a very common approach for immobilising the ligand to the chip surface. The chip surface has a dextran matrix derivatised with carboxyl groups, which after activation with N-hydroxysuccinimide (NHS) and 1-ethyl-3-(3-dimethylaminopropyl) carbodiimide (EDC), form reactive succinimide esters which allows the covalent capturing of the ligand via any available primary amine groups (e.g. Lysine) on the ligand (in this case anti-HuCk antibody). The capture antibody was diluted 1/100 in 10 mM Sodium acetate buffer pH 5.0 and passed over the activated chip surface for a period of at least 420 s. Final ligand immobilisation levels over 12,000 RU were deemed to be satisfactory.
Following immobilisation, the level of each scAb to be captured was identified using the standard SPR equation with a theoretical RMax of 100 RU. Analyte MW refers to the molecular weight of hT40 or dGA/dGAE molecules, while ligand MW refers to the molecular weight of the scAbs tested. RL is the desired capture level and S refers to the stoichiometric ratio:
The scAb to be tested was added only to flow cell 2 so that flow cell 1 could act as a control to subtract any interaction with the analyte and the chip surface. Both single and multi-cycle runs were utilised using wizards developed in the Biacore X100 control software which are both accepted methods of kinetic analysis (Karlsson, R., et al. Analyzing a kinetic titration series using affinity biosensors (2006) Analytical Biochemistry 349:136-47). The multi-cycle protocol was as follows-Three start-up cycles composed of an initial capture, to the desired level, of the scAb to be tested was performed followed by a 30 s injection of glycine buffer pH 2.0 after each cycle to regenerate the chip surface. The regeneration step removed any captured scAb whilst leaving the capture antibody intact and able to repeat the capture for the next cycle. Following three start-up cycles increasing concentrations (0.15625 nM-100 nM) of the target to be tested were added to the chip surface after the desired scAb capture. The target was added for a 120 s association period and 420 s dissociation period followed by another regeneration, 30 s injection of glycine buffer pH 2.0 in between each cycle.
The single cycle kinetics protocol was similar and utilised the same level of scAb capture. Three start-up cycles were used followed by 5 increasing concentrations of the analyte (6.25 nM-100 nM) for an association period of 120 s followed by a dissociation period of 420 s for each concentration. In single cycle kinetics the regeneration step was performed only after the final analyte concentration was added. Binding responses were analysed in Biacore X100 evaluation software and data fitted to a 1:1 binding model to obtain kinetic and affinity characterisation.

[3] = biological target: dGAE aggregates (Homo sapiens, UniProt P10636); assay: Epitope occlusion assay: dGAE aggregation with/without LMTM, 423 mAb capture ELISA; type: biochemical; conditions: total and supernatant samples; 423 mAb capture
Sequence of dGAE aggregates (P10636 614-708): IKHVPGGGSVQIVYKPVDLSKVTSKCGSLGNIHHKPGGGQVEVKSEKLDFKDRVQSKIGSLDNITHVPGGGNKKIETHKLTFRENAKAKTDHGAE
Protocol: During dGAE aggregation in vitro, scAb binding regions on dGA/dGAE are ‘hidden’ or ‘occluded’ which leads to a loss of immunoreactivity in aggregation samples. Here we have shown the occlusion of binding regions in aggregated dGAE samples and the recovery of immunoreactivity in the presence of LMTM, a tau-aggregation inhibitor. For preparing the aggregates, 10 μl 10 mM DTT was added to 1000 μl 100 μM dGAE and agitated with/without LMTM (1:5 ratio) at 700 rpm for 24 h at 37° C. Following overnight agitation, one third of each sample was kept aside as ‘total’ and the rest was spun down at 16000×g for 30 min and separated into ‘supernatant’ and ‘pellet’. The pellet was then resuspended in half the original volume for further experiments. […] Doubling dilutions of dGAE aggregate ‘total’, ‘supernatant’ and ‘pellet’ samples at 10 μg/ml starting concentration were added to designated wells in doubling dilutions in 1×PBS. dGAE monomer (non-aggregated) was included as assay control. All double dilutions were done in final volumes of 100 μl. This was left to incubate on lab bench for 1 h followed by the addition of test scAbs at 10 μg/ml. Anti-HuCk HRP labelled secondary antibody was added as described previously and ELISA data generated is represented using the graph below.

[4] = biological target: aggregated dGAE (Homo sapiens, UniProt P10636); assay: Capture ELISA ranking mAbs for capture of dGAE aggregates; type: binding; conditions: capture mAb 1 μg/ml; 800 nM aggregated dGAE
Sequence of aggregated dGAE (P10636 614-708): as above
Protocol: The aggregation cascade of natively unfolded tau into insoluble filaments is a defining pathological feature of AD. Therefore, it is logical to target aggregated tau filaments for both therapeutic and diagnostic purposes. The following experiment was performed to assess the ability of our dGA mAb panel to bind aggregated dGAE using a capture ELISA method. Aggregates were prepared by incubating 100 μM dGAE and 10 mM dTT for 24 h at 37° C. with shaking at 700 RPM. The following day, dGAE aggregates were centrifuged at 17,000×g for 20 min and the supernatant was removed. The remaining pellet was washed with 10 mM phosphate buffer and centrifuged as above. Washing was repeated a further two times to remove any remaining dGAE monomer. The dGAE pellet was resuspended in 100 μl of 10 mM phosphate buffer. (Using a separate capture ELISA based quantification, we have worked out the efficiency of our dGAE aggregation as 80%)
Following washing, 800 nM aggregated dGAE was added to the designated wells, double diluted across the plate and incubated for 1 h at RT. The plate was washed again and 1 μg/ml S1G2 scAb was added as detection antibody and incubated for 1 h at RT. To the row where S1G2 mAb was used for capture, […] s1D12 scAb was added as […] instead of S1G2. The assay was developed using HRP labelled HuCK as described previously.

Molecule	critical binding residues [1]	ka [2] [M⁻¹ s⁻¹]	Kd [2] [s⁻¹]	immunoreactivity to dGAE aggregation samples prepared in the presence of LMTM [3]	ability to capture dGAE aggregates [4]
B1	323 (G), 324 (S), 325 (L), 326 (G), 327 (N) and/or 328 (I)	137000	0.00242	increase in immunoreactivity	
B2		783000	0.0003499		most efficient at capturing aggregated dGAE
B3	343 (K), 346 (F) and/or 349 (R)	1.21e+06	0.000418	increase in immunoreactivity	most efficient at capturing aggregated dGAE

— patent US20250355001A1, “METHOD FOR DETECTING A TAU PROTEIN FRAGMENT IN A SAMPLE” (GTINVENT LIMITED, priority 2022, published 2025)
